# Positions count from the first letter of the chain named. Entries after “also recorded” stand apart in the source; their conditions may differ. Bridges are numbered along the chain shown (N, C = ends). The star is where a group is joined. Biotin = O=C1N[C@H]2[C@H](CS[C@H]2CCCCC(=O)*)N1
# T1: p67^phox(1–212) (UniProt P19878 1-212)
# T1 construct: contains four cysteines (40, 45, 121, 165); source: E. coli, purified (Nickel Sepharose); not shown: 6His, N-terminal, kept
# T1 sequence (looked up): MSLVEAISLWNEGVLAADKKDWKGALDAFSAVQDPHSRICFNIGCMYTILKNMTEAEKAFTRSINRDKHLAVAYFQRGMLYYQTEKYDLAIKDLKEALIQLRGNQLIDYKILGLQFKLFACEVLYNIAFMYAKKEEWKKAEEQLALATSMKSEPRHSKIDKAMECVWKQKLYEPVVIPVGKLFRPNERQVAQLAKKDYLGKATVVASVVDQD
# T2: p67^phox(1–526) (UniProt P19878 1-526)
# T2 construct: construct as in Mizrahi et al., 2010; also called full-length p67^phox; 6His-p67^phox; source: E. coli, purified (Nickel Sepharose); not shown: 6His, N-terminal, kept
# T2 sequence (looked up): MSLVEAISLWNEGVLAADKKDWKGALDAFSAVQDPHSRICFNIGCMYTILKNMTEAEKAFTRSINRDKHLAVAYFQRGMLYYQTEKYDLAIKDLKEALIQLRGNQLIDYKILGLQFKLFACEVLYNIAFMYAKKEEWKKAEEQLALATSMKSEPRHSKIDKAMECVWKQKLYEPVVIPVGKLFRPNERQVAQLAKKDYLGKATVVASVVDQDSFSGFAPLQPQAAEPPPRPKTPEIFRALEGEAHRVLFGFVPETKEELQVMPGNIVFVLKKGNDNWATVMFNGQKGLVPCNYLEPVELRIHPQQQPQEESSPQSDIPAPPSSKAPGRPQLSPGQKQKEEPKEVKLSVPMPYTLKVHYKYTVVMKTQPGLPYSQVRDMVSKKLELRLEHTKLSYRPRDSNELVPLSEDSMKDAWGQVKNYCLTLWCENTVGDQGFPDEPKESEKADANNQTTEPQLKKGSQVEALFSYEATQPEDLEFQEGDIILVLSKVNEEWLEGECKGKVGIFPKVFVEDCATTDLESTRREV
# B1: p67^phox(1–212): wild-type recombinant p67phox residues 1–212 (protein)
# chain: T1 sequence (looked up)
# modifications: left off: 6His, N-terminal, kept
# B2: Mutant p67^phox: recombinant p67phox(1–212) in which cysteines 40, 45, 121, and 165 were mutated to serine (protein)
# chain: T1 sequence (looked up) with C40S, C45S, C121S, C165S
# modifications: left off: 6His, N-terminal, kept
# notes: recombinant p67phox(1–212) in which cysteines 40, 45, 121, and 165 were mutated to serine
# B3: Nox2 peptide 28 (369–383) with an intramolecular disulfide bond linking cysteines 369 and 371 (peptide)
# peptide: Biotin-SGSGCGCDKQEFQDAWKLP-NH2
# modifications: disulfide 5-7
# SMILES: CC(C)C[C@H](NC(=O)[C@H](CCCCN)NC(=O)[C@H](Cc1c[nH]c2ccccc12)NC(=O)[C@H](C)NC(=O)[C@H](CC(=O)O)NC(=O)[C@H](CCC(N)=O)NC(=O)[C@H](Cc1ccccc1)NC(=O)[C@H](CCC(=O)O)NC(=O)[C@H](CCC(N)=O)NC(=O)[C@H](CCCCN)NC(=O)[C@H](CC(=O)O)NC(=O)[C@@H]1CSSC[C@H](NC(=O)CNC(=O)[C@H](CO)NC(=O)CNC(=O)[C@H](CO)NC(=O)CCCC[C@@H]2SC[C@@H]3NC(=O)N[C@@H]32)C(=O)NCC(=O)N1)C(=O)N1CCC[C@H]1C(N)=O
# notes: spacer between the N-terminal biotin and the peptide, printed as Ser-Gly-Ser-Gly; also called peptide 28, disulfide form; source: synthetic peptide (Mimotopes or Bachem); not shown: biotin, N-terminal, kept
# B4: NusA-Nox2(357–570): fusion protein of NusA and Nox2 residues 357–570, contains the CGC triad (protein)
# chain: IVGDWTEGLFNACGCDKQEFQDAWKLPKIAVDGPFGTASEDVFSYEVVMLVGAGIGVTPFASILKSVWYKYCNNATNLKLKKIYFYWLCRDTHAFEWFADLLQLLESQMQERNNAGFLSYNIYLTGWDESQANHFAVHHDEEKDVITGLKQKTLYGRPNWDNEFKTIASQHPNTRIGVFLCGPEALAETLSKQSISNSESGPRGVHFIFNKENF
# modifications: left off: NusA (E. coli), N-terminal, kept | His tag (from the purification on Nickel Sepharose), end not stated, state not stated
# notes: fusion protein of NusA and Nox2 residues 357–570, contains the CGC triad
# Tests used:
# [1] = molecular target: NusA-Nox2(357–570) (human) (UniProt P04839); test: SEC; FPLC gel filtration on HiLoad 16/60 Superdex 200 prep grade; separated a polymeric fraction from a homodimer fraction
# PDI = settings: disulfide form; ref Kersteen and Raines, [2003]; Wang et al., [2011]; cited from earlier work
# Text: Based on the resemblance of the CXC motif with the CXXC motif characteristic of the catalytic motifs of PDI and thioredoxin, we synthesized analogs of Nox2 peptide 24 ([…]) in which the CGC sequen ...
# NADPH oxidase = tested on: NADPH oxidase; set-up: method as in 8 sources, one per row (each row's own in cited_ref): ref Shpungin et al., [1989] ||| ref Bellavite et al., [1983]; Gabig and Lefker, [1984] ||| ref Pick et al., [1987] ||| ref Le Cabec and Maridonneau-Parini, [1995] ||| ref Nishida et al., [2005] ||| ...; settings: acts on a membrane component; ref Shpungin et al., [1989]; cited from earlier work
# [2] = tested on: NADPH oxidase in intact phagocytes / neutrophils; set-up: method as in 3 sources, one per row (each row's own in cited_ref): ref Cohen and Chovaniec, [1978]; Yamashita et al., [1984] ||| ref Le Cabec and Maridonneau-Parini, [1995] ||| ref Tsunawaki et al., [2004]; settings: added before activation; ref Cohen and Chovaniec, [1978]; Yamashita et al., [1984]; cited from earlier work
# p67^phox(1–526) [3] = test: Effect of thiol reagents on binding of p67phox(1–526) to Nox2 peptide 24; settings: 1 h room temperature
# [4] = Binding of thiol reagent mBBr to p67phox(1–212); settings: results not shown
# [5] = tested on: Nox2 peptide 24 (357–371); test: Peptide–protein binding assay, wild type and Cys to Ser mutant p67phox(1–212) to Nox2 peptide 24; settings: 3 experiments (Figure 12); for binding to Nox2 peptide 24 in the disulfide form: 24N CGC S-S; for binding to Nox2 peptide 24 in the dithiol (reduced) form: 24N CGC
# [6] = molecular target: T3, NADPH oxidase (macrophage membrane liposomes, cytochrome b558) (Cavia porcellus, UniProt H0UXC6); test: Cell-free NADPH oxidase activation, amphiphile- and p47phox-dependent; format: biochemical, guinea pig; settings: for EC50: equal concentrations of p67phox, p47phox and Rac1 Q61L 10–200 nM, LiDS 120 μM, 5 nM cytochrome b558 heme, 90 s (Figure 13A), read-out: EC50, support of NADPH oxidase activation
# p67^phox(1–212) [7] = test: Protein–protein binding assay, p67phox(1–212)
# [8] = molecular target: T3, NADPH oxidase (macrophage membrane liposomes, cytochrome b558); test: Cell-free NADPH oxidase activation, amphiphile- and p47phox-independent; format: biochemical, guinea pig; settings: equal concentrations of p67phox and prenylated Rac1 Q61L 50–600 nM, 5 nM cytochrome b558 heme, 5 min (Figure 13B), read-out: EC50, support of NADPH oxidase activation
# p67^phox(1–212) [9] = molecular target: T1, p67^phox(1–212); test: ELISA; peptide—protein binding of p67^phox to Nox2 peptide 28, told in the results without a figure (the introduction gives manuscripts in preparation); settings: both partners purified
# p67^phox(1–526) [10] = molecular target: T2, p67^phox(1–526); test: as above; settings: both partners purified
# oxidized insulin = test: Insulin reduction (turbidimetric) assay; format: biochemical; settings: up to 5 μM
# p67^phox(1–526) [11] = test: Protein–protein binding assay, p67phox(1–526); settings: homodimers, 0.5 μM, p67phox coated at 0.5 μM; one characteristic experiment (Figure 5A)
# [12] = PDI reductase activity, DE-GSSG reduction; format: biochemical; settings: for Vmax, PDI reductase activity (Figure 6B): DTT only 5,124
molecule,measurement,setting,value
NusA-Nox2(357–570) (from UniProt P04839 357-570) (domain or fragment),stoichiometry N,[1],2
RKCGC (disulfide) [small peptide RKCGC],mimicry of the actions of PDI protein,PDI,can mimic the actions of PDI protein
"CCN1C(=O)C=CC1=O [NEM, N-ethylmaleimide]",inhibition of oxidase activation in vitro,NADPH oxidase,inhibited
same,inhibition of oxidase activation in intact phagocytes,[2],inhibited
same,effect of pretreatment of p67phox on low affinity binding to native form of peptide 24,"p67^phox(1–526) [3]; NEM 0.1 mM or diamide 5 mM, three experiments (Figure 2A,B)",suppressed
same,effect of NEM pretreatment of p67phox on binding to peptide 24 in the disulfide form,"p67^phox(1–526) [3]; p67^phox(1–526) 1.5 μM, NEM 0.1 mM, three experiments (Figure 2A)",totally abolished
B1,binding of mBBr,[4],bound mBBr
same,binding to Nox2 peptide 24 in the disulfide form,[5],much enhanced binding
same,binding to Nox2 peptide 24 in the dithiol (reduced) form,[5],moderate binding
same,EC50,[6],57.2 nM
same,binding of NusA-Nox2 to p67phox(1–212) relative to p67phox(1–526),"p67^phox(1–212) [7]; Figure 5A,B",exceeded
same,EC50,[8],224 nM
B2,binding of mBBr,[4],did not
same,binding to Nox2 peptide 24 in the disulfide form,[5]; listed as mutant protein,markedly reduced
same,binding to Nox2 peptide 24 in the dithiol (reduced) form,[5]; listed as mutant protein,lacked binding ability; also recorded: markedly reduced
same,increase in EC50 versus wild-type,[6],two-fold
same,EC50,[6],114 nM
same,EC50,[8],405 nM
B3,binding result,p67^phox(1–212) [9],binds
same,binding result,p67^phox(1–526) [10],binds
B4,insulin reductase activity,oxidized insulin,no activity could be detected
same,binding of NusA-Nox2 to p67phox(1–526),p67^phox(1–526) [11],significant binding
same,binding of NusA-Nox2 to p67phox(1–212),"p67^phox(1–212) [7]; homodimers, 0.5 μM, p67phox coated at 0.5 μM, one characteristic experiment (Figure 5B)",significant binding
same,"Vmax, PDI reductase activity (Figure 7A)","[12]; 1 μM, DE-GSSG 0.8 μM, DTT 12.5 μM, pH 7.0, 24°C, mean ± SEM of 9 experiments","49,164 ± 2271"
same,"Vmax, PDI reductase activity (Figure 6B)","[12]; 1 μM, DE-GSSG 800 nM, DTT 12.5 μM, one characteristic experiment","41,130 milli relative fluorescence units per min"
same,PDI activity compared with DTT alone,[12]; 2 μM (Figure 6A),marked excess
same,"Vmax, PDI reductase activity (Figure 6B)","[12]; 2 μM, DE-GSSG 800 nM, DTT 12.5 μM, one characteristic experiment","62,074 milli relative fluorescence units per min"
same,"Vmax, PDI reductase activity in the absence of PAO (Figure 6D)","[12]; 2 μM, DE-GSSG 800 nM, DTT 12.5 μM, one characteristic experiment, DTT only 8,254","40,306 milli relative fluorescence units per min"
same,"Vmax, PDI reductase activity (Figure 6C)","[12]; 2 μM, DE-GSSG 800 nM, DTT 12.5 μM, one characteristic experiment, DTT only 26,248","127,476 milli relative fluorescence units per min"
same,"Vmax, PDI reductase activity (Figure 6B)","[12]; 3 μM, DE-GSSG 800 nM, DTT 12.5 μM, one characteristic experiment","73,736 milli relative fluorescence units per min"
same,"Vmax, PDI reductase activity (Figure 6B)","[12]; 4 μM, DE-GSSG 800 nM, DTT 12.5 μM, one characteristic experiment","86,162 milli relative fluorescence units per min"
same,dose dependency of reductase activity,[12]; 1–4 μM (Figure 6B),clear dose dependency
same,"Vmax, PDI reductase activity (Figure 6A)","[12]; NusA-Nox2(357–570) 2 μM, DE-GSSG 800 nM, DTT 12.5 μM, pH 7.0, 24°C, 30 min, DTT only 7,108 and 9,423","52,312 ± 1,380 milli relative fluorescence units per min"
